In patent US12104181B2, “Compositions and methods for treating viral infections targeting TRIM7” (THE BOARD OF REGENTS OF THE UNIVERSITY OF TEXAS SYSTEM, priority 2021, dated 2024):

B1: RNF8: human RING type E3 ligase expressed from lentiviral vector (protein, UniProt O76064 1-485, looked up)
E3 ubiquitin-protein ligase …: MGEPGFFVTGDRAGGRSWCLRRVGMSAGWLLLEDGCEVTVGRGFGVTYQLVSKICPLMISRNHCVLKQNPEGQWTIMDNKSLNGVWLNRARLEPLRVYSIHQGDYIQLGVPLENKENAEYEYEVTEEDWETIYPCLSPKNDQMIEKNKELRTKRKFSLDELAGPGAEGPSNLKSKINKVSCESGQPVKSQGKGEVASTPSDNLDPKLTALEPSKTTGAPIYPGFPKVTEVHHEQKASNSSASQRSLQMFKVTMSRILRLKIQMQEKHEAVMNVKKQTQKGNSKKVVQMEQELQDLQSQLCAEQAQQQARVEQLEKTFQEEEQHLQGLEIAQGEKDLKQQLAQALQEHWALMEELNRSKKDFEAIIQAKNKELEQTKEEKEKMQAQKEEVLSHMNDVLENELQCIICSEYFIEAVTLNCAHSFCSYCINEWMKRKIECPICRKDIKSKTYSLVLDNCINKMVNNLSSEVKERRIVLIRERKAKRLF
modifications: lentiviral expression
notes: human RING type E3 ligase expressed from lentiviral vector
B2: RNF151: human RING type E3 ligase expressed from lentiviral vector (protein, UniProt Q2KHN1 1-245, looked up)
RING finger protein 151: MGGGYDLNLFASPPDSNFVCSVCHGVLKRPARLPCSHIFCKKCILRWLARQKTCPCCRKEVKRKKVVHMNKLRKTIGRLEVKCKNADAGCIVTCPLAHRKGHQDSCPFELTACPNEGCTSQVPRGTLAEHRQHCQQGSQQRCPLGCGATLDPAERARHNCYRELHNAWSVRQERRRPLLLSLLRRVRWLDQATSVVRRELAELSNFLEEDTALLEGAPQEEAEAAPEGNVGAEVVGEPRANIPCK
B3: MARCH1: human RING type E3 ligase expressed from lentiviral vector (protein, UniProt Q8TCQ1 1-289, looked up)
E3 ubiquitin-protein ligase …: MLGWCEAIARNPHRIPNNTRTPEISGDLADASQTSTLNEKSPGRSASRSSNISKASSPTTGTAPRSQSRLSVCPSTQDICRICHCEGDEESPLITPCRCTGTLRFVHQSCLHQWIKSSDTRCCELCKYDFIMETKLKPLRKWEKLQMTTSERRKIFCSVTFHVIAITCVVWSLYVLIDRTAEEIKQGNDNGVLEWPFWTKLVVVAIGFTGGLVFMYVQCKVYVQLWRRLKAYNRVIFVQNCPDTAKKLEKNFSCNVNTDIKDAVVVPVPQTGANSLPSAEGGPPEVVSV
B4: RNF152: human RING type E3 ligase expressed from lentiviral vector (protein, UniProt Q8N8N0 1-203, looked up)
E3 ubiquitin-protein ligase …: METLSQDSLLECQICFNYYSPRRRPKLLDCKHTCCSVCLQQMRTSQKDVRCPWCRGVTKLPPGFSVSQLPDDPEVLAVIAIPHTSEHTPVFIKLPSNGCYMLPLPISKERALLPGDMGCRLLPGSQQKSVTVVTIPAEQQPLQGGAPQEAVEEEQDRRGVVKSSTWSGVCTVILVACVLVFLLGIVLHNMSCISKRFTVISCG
modifications: lentiviral expression
notes: as for B1
B5: RNF135: human RING type E3 ligase expressed from lentiviral vector (protein, UniProt Q8IUD6 1-432, looked up)
E3 ubiquitin-protein ligase …: MAGLGLGSAVPVWLAEDDLGCIICQGLLDWPATLPCGHSFCRHCLEALWGARDARRWACPTCRQGAAQQPHLRKNTLLQDLADKYRRAAREIQAGSDPAHCPCPGSSSLSSAAARPRRRPELQRVAVEKSITEVAQELTELVEHLVDIVRSLQNQRPLSESGPDNELSILGKAFSSGVDLSMASPKLVTSDTAAGKIRDILHDLEEIQEKLQESVTWKEAPEAQMQGELLEAPSSSSCPLPDQSHPALRRASRFAQWAIHPTFNLKSLSCSLEVSKDSRTVTVSHRPQPYRWSCERFSTSQVLCSQALSSGKHYWEVDTRNCSHWAVGVASWEMSRDQVLGRTMDSCCVEWKGTSQLSAWHMVKETVLGSDRPGVVGIWLNLEEGKLAFYSVDNQEKLLYECTISASSPLYPAFWLYGLHPGNYLIIKQVKV
modifications: lentiviral expression
notes: as for B1
B6: RNF14: human RING type E3 ligase expressed from lentiviral vector (protein, UniProt Q9UBS8 1-474, looked up)
E3 ubiquitin-protein ligase …: MSSEDREAQEDELLALASIYDGDEFRKAESVQGGETRIYLDLPQNFKIFVSGNSNECLQNSGFEYTICFLPPLVLNFELPPDYPSSSPPSFTLSGKWLSPTQLSALCKHLDNLWEEHRGSVVLFAWMQFLKEETLAYLNIVSPFELKIGSQKKVQRRTAQASPNTELDFGGAAGSDVDQEEIVDERAVQDVESLSNLIQEILDFDQAQQIKCFNSKLFLCSICFCEKLGSECMYFLECRHVYCKACLKDYFEIQIRDGQVQCLNCPEPKCPSVATPGQVKELVEAELFARYDRLLLQSSLDLMADVVYCPRPCCQLPVMQEPGCTMGICSSCNFAFCTLCRLTYHGVSPCKVTAEKLMDLRNEYLQADEANKRLLDQRYGKRVIQKALEEMESKEWLEKNSKSCPCCGTPIEKLDGCNKMTCTGCMQYFCWICMGSLSRANPYKHFNDPGSPCFNRLFYAVDVDDDIWEDEVED
modifications: lentiviral expression
notes: as for B1
B7: RNF121: human RING type E3 ligase expressed from lentiviral vector (protein, UniProt Q9H920 2-327, looked up)
E3 ubiquitin ligase RNF121: AAVVEVEVGGGAAGERELDEVDMSDLSPEEQWRVEHARMHAKHRGHEAMHAEMVLILIATLVVAQLLLVQWKQRHPRSYNMVTLFQMWVVPLYFTVKLHWWRFLVIWILFSAVTAFVTFRATRKPLVQTTPRLVYKWFLLIYKISYATGIVGYMAVMFTLFGLNLLFKIKPEDAMDFGISLLFYGLYYGVLERDFAEMCADYMASTIGFYSESGMPTKHLSDSVCAVCGQQIFVDVSEEGIIENTYRLSCNHVFHEFCIRGWCIVGKKQTCPYCKEKVDLKRMFSNPWERPHVMYGQLLDWLRYLVAWQPVIIGVVQGINYILGLE
B8: RNF180: human RING type E3 ligase expressed from lentiviral vector (protein, UniProt Q86T96 1-592, looked up)
E3 ubiquitin-protein ligase …: MKRSKELITKNHSQEETSILRCWKCRKCIASSGCFMEYLENQVIKDKDDSVDAQNICHVWHMNVEALPEWISCLIQKAQWTVGKLNCPFCGARLGGFNFVSTPKCSCGQLAAVHLSKSRTDYQPTQAGRLMRPSVKYLSHPRVQSGCDKEALLTGGGSENRNHRLLNMARNNNDPGRLTEALCLEVRPTYFEMKNEKLLSKASEPKYQLFVPQLVTGRCATRAFHRKSHSLDLNISEKLTLLPTLYEIHSKTTAYSRLNETQPIDLSGLPLQSSKNSYSFQNPSSFDPSMLLQRFSVAPHETQTQRGGEFQCGLEAASVYSDHTNTNNLTFLMDLPSAGRSMPEASDQEEHLSPLDFLHSANFSLGSINQRLNKRERSKLKNLRRKQRRRERWLQKQGKYSGVGLLDHMTLNNEMSTDEDNEYAEEKDSYICAVCLDVYFNPYMCYPCHHIFCEPCLRTLAKDNPSSTPCPLCRTIISRVFFQTELNNATKTFFTKEYLKIKQSFQKSNSAKWPLPSCRKAFHLFGGFRRHAAPVTRRQFPHGAHRMDYLHFEDDSRGWWFDMDMVIIYIYSVNWVIGFIVFCFLCYFFFPF
modifications: lentiviral expression
notes: as for B1
B9: RNF182: human RING type E3 ligase expressed from lentiviral vector (protein, UniProt Q8N6D2 1-247, looked up)
E3 ubiquitin-protein ligase …: MASQPPEDTAESQASDELECKICYNRYNLKQRKPKVLECCHRVCAKCLYKIIDFGDSPQGVIVCPFCRFETCLPDDEVSSLPDDNNILVNLTCGGKGKKCLPENPTELLLTPKRLASLVSPSHTSSNCLVITIMEVQRESSPSLSSTPVVEFYRPASFDSVTTVSHNWTVWNCTSLLFQTSIRVLVWLLGLLYFSSLPLGIYLLVSKKVTLGVVFVSLVPSSLVILMVYGFCQCVCHEFLDCMAPPS
B10: RNF145: human RING type E3 ligase expressed from lentiviral vector (protein, UniProt Q96MT1 1-663, looked up)
RING finger protein 145: MAAKEKLEAVLNVALRVPSIMLLDVLYRWDVSSFFQQIQRSSLSNNPLFQYKYLALNMHYVGYILSVVLLTLPRQHLVQLYLYFLTALLLYAGHQISRDYVRSELEFAYEGPMYLEPLSMNRFTTALIGQLVVCTLCSCVMKTKQIWLFSAHMLPLLARLCLVPLETIVIINKFAMIFTGLEVLYFLGSNLLVPYNLAKSAYRELVQVVEVYGLLALGMSLWNQLVVPVLFMVFWLVLFALQIYSYFSTRDQPASRERLLFLFLTSIAECCSTPYSLLGLVFTVSFVALGVLTLCKFYLQGYRAFMNDPAMNRGMTEGVTLLILAVQTGLIELQVVHRAFLLSIILFIVVASILQSMLEIADPIVLALGASRDKSLWKHFRAVSLCLFLLVFPAYMAYMICQFFHMDFWLLIIISSSILTSLQVLGTLFIYVLFMVEEFRKEPVENMDDVIYYVNGTYRLLEFLVALCVVAYGVSETIFGEWTVMGSMIIFIHSYYNVWLRAQLGWKSFLLRRDAVNKIKSLPIATKEQLEKHNDICAICYQDMKSAVITPCSHFFHAGCLKKWLYVQETCPLCHCHLKNSSQLPGLGTEPVLQPHAGAEQNVMFQEGTEPPGQEHTPGTRIQEGSRDNNEYIARRPDNQEGAFDPKEYPHSAKDEAHPVESA
B11: RI NG1: human RING type E3 ligase expressed from lentiviral vector (protein, UniProt Q06587 1-406, looked up)
E3 ubiquitin-protein ligase …: MTTPANAQNASKTWELSLYELHRTPQEAIMDGTEIAVSPRSLHSELMCPICLDMLKNTMTTKECLHRFCSDCIVTALRSGNKECPTCRKKLVSKRSLRPDPNFDALISKIYPSREEYEAHQDRVLIRLSRLHNQQALSSSIEEGLRMQAMHRAQRVRRPIPGSDQTTTMSGGEGEPGEGEGDGEDVSSDSAPDSAPGPAPKRPRGGGAGGSSVGTGGGGTGGVGGGAGSEDSGDRGGTLGGGTLGPPSPPGAPSPPEPGGEIELVFRPHPLLVEKGEYCQTRYVKTTGNATVDHLSKYLALRIALERRQQQEAGEPGGPGGGASDTGGPDGCGGEGGGAGGGDGPEEPALPSLEGVSEKQYTIYIAPGGGAFTTLNGSLTLELVNEKFWKVSRPLELCYAPTKDPK
B12: RNF166: human RING type E3 ligase expressed from lentiviral vector (protein, UniProt Q96A37 1-237, looked up)
E3 ubiquitin-protein ligase …: MAMFRSLVASAQQRQPPAGPAGGDSGLEAQYTCPICLEVYHRPVAIGSCGHTFCGECLQPCLQVPSPLCPLCRLPFDPKKVDKATHVEKQLSSYKAPCRGCNKKVTLAKMRVHISSCLKVQEQMANCPKFVPVVPTSQPIPSNIPNRSTFACPYCGARNLDQQELVKHCVESHRSDPNRVVCPICSAMPWGDPSYKSANFLQHLLHRHKFSYDTFVDYSIDEEAAFQAALALSLSEN
modifications: lentiviral expression
notes: as for B1

Test system: coxsackievirus B3 (CVB3-GFP)
Format: cell-based
Conditions: HeLa cells, replicate R1; for Percent Infected R1: GFP-positive cells within RFP-positive gate

| Molecule | Percent Infected R1 | Z score R1 |
| --- | --- | --- |
| B1 | 82.8% | −0.07 |
| B2 | 92.8% | 0.05 |
| B3 | 97.7% | 0.12 |
| B4 | 97.4% | 0.11 |
| B5 | 86.2% | −0.03 |
| B6 | 95.5% | 0.09 |
| B7 | 84.1% | −0.06 |
| B8 | 93.2% | 0.06 |
| B9 | 97.9% | 0.12 |
| B10 | 94.2% | 0.07 |
| B11 | 92.9% | 0.05 |
| B12 | 94.5% | 0.08 |
